Positions count from the first letter of the chain named.
Legend:
[1] = biological target: T1, human IL-12Rβ2 (human, UniProt Q99665 24-862); assay: flow cytometry, P.E. on transfected HEK293T cells
T1 construct: Expressed on HEK293T cells transiently transfected with a pcDNA3 plasmid (Genscript clone OHu21785); also called hIL-12RB2; IL-12 receptor β2 subunit
T1 sequence: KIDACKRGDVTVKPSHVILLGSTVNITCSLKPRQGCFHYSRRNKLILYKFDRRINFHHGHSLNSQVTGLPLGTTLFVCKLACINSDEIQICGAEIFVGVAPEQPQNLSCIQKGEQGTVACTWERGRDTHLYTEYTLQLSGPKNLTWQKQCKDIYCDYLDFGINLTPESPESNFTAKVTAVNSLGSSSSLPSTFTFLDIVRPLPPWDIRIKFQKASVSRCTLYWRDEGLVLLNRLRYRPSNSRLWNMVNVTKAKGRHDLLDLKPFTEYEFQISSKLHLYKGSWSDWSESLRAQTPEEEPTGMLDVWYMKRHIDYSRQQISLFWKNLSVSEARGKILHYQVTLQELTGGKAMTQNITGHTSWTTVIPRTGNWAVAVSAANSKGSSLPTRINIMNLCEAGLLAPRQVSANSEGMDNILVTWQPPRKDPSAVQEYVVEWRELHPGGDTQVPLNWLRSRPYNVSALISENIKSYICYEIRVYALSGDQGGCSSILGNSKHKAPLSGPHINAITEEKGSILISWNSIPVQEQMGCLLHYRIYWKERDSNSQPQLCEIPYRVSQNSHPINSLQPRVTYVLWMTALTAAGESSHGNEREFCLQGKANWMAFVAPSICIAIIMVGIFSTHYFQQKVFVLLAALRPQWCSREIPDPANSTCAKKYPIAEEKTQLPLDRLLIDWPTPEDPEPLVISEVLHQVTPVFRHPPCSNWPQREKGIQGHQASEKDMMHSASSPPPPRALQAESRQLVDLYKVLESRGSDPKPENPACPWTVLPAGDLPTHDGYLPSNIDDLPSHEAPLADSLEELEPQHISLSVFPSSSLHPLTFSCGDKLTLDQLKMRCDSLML

[2] = biological target: T2, mouse IL-12Rβ2 (mouse, UniProt P97378 24-874); assay: flow cytometry, P.E. on transfected HEK293T cells
T2 construct: Expressed on HEK293T cells transiently transfected with a pcDNA3 plasmid (Genscript clone OMu01776); also called mIL-12RB2; NP_032380.1
T2 sequence: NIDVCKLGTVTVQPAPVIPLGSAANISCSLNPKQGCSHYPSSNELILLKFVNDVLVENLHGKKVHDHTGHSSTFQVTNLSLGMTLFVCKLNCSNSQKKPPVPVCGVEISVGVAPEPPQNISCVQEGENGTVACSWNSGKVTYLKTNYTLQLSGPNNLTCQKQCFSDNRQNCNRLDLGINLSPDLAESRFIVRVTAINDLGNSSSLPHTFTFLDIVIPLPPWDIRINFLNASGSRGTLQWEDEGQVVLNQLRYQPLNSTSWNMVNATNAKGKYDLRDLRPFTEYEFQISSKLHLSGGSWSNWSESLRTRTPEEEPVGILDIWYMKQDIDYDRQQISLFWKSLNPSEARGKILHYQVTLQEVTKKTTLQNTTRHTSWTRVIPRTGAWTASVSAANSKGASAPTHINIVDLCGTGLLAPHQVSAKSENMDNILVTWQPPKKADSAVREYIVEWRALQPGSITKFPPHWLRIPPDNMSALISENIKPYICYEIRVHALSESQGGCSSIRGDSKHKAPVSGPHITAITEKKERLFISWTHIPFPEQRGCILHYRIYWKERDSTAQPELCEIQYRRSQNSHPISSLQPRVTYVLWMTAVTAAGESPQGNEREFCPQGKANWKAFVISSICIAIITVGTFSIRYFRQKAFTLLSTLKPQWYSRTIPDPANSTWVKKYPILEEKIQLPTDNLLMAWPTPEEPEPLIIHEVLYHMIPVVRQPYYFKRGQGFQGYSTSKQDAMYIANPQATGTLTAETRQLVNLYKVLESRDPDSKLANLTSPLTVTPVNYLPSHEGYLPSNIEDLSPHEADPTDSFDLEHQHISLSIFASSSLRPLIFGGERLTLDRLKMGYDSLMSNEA

[3] = biological target: T3, biotinylated recombinant human IL-12Rβ2 (produced in-house) (human, UniProt Q99665 24-622, randomly biotinylated); assay: ELISA, periplasmic extract on biotinylated human IL-12Rβ2; control streptavidin-coated blocked wells
T3 construct: also called hIL-12RB2; human IL-12RB2
T3 sequence: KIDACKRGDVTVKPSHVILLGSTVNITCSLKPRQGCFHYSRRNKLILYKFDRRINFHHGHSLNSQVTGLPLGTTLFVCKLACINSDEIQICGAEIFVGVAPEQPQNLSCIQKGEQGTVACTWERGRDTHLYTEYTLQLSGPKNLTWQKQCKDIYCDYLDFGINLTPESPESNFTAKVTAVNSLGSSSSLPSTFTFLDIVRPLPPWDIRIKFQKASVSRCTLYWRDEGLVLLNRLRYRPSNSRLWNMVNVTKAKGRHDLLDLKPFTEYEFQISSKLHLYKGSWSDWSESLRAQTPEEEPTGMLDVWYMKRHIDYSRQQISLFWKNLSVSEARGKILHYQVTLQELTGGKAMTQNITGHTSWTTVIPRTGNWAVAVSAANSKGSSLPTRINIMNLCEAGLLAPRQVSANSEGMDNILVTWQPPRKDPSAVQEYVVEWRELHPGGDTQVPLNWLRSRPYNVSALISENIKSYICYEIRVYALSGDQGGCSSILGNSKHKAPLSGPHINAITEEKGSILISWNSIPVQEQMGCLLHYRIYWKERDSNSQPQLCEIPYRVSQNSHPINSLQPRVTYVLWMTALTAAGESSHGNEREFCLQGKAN

[4] = biological target: T4, biotinylated recombinant mouse IL-12Rβ2 (produced in-house) (mouse, UniProt P97378 24-637, randomly biotinylated); assay: ELISA, periplasmic extract on biotinylated mouse IL-12Rβ2; control streptavidin-coated blocked wells
T4 construct: also called mIL-12RB2; mouse IL-12RB2
T4 sequence: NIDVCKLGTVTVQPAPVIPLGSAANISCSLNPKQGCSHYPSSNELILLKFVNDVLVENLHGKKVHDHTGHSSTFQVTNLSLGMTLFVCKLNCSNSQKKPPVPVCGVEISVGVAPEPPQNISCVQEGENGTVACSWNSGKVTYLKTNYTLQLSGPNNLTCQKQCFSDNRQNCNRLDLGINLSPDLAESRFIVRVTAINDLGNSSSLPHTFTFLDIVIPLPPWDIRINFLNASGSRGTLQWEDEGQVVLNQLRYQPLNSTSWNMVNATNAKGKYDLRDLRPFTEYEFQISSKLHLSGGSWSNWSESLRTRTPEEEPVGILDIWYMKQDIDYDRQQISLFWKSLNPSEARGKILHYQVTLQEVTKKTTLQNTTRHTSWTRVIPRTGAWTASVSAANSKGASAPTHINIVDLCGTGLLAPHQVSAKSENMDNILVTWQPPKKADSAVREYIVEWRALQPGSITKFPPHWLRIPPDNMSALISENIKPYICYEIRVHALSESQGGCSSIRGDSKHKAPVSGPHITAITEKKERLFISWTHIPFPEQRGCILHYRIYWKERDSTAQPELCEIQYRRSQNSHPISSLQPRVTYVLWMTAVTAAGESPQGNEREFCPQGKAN

B1: anti-IL-12Rβ2 VHH clone 3CRHM12 (VHH, not shown: small tags and cut ends)
VHH: QVQLQESGGGSVQAGGSLRLSCAVSGRTVSDYAMGWFRQAPGKEREFVAAMSSSETTVYPNSVKGRITISRDNAKNAVYLQMNALKPEDTAVYYCSMGPIVTFQGLARQNEYHYWGQGTQVTVSS
notes: periplasmic extract
% cells bound [1]: 30.4%
dMFI [1]: 495
% cells bound [2]: 1.21%
dMFI [2]: 103

B2: anti-IL-12Rβ2 VHH clone 3CAHM40 (VHH, not shown: small tags and cut ends)
VHH: B1 VHH with V63M, M82L, V101A
notes: periplasmic extract
% cells bound [1]: 32.7%
dMFI [1]: 544
% cells bound [2]: 1.02%
dMFI [2]: 105

B3: anti-IL-12Rβ2 VHH clone 3CRHM133 (VHH, not shown: small tags and cut ends)
VHH: B1 VHH with T28P, M51L, S53A, E55D, Y79D, S96A, V101G
notes: periplasmic extract; also called 21063
% cells bound [1]: 33.7%
dMFI [1]: 721
% cells bound [2]: 0.59%
dMFI [2]: 133

B4: anti-IL-12Rβ2 VHH clone 3CRHM240 (VHH, not shown: small tags and cut ends)
VHH: B1 VHH with A49V, P60T, V101T
notes: periplasmic extract; also called 21065
% cells bound [1]: 33.7%
dMFI [1]: 635
% cells bound [2]: 0.33%
dMFI [2]: 43

B5: anti-IL-12Rβ2 VHH clone 3CRHM73 (VHH, not shown: small tags and cut ends)
VHH: QVQLQESGGGLVQAGGSLSLSCAASGSAFRLNFMGWYRQAPGKQRELVAAINSGGTEIYHDSVKGRFTISRDNADSTVWLQMNSLKPDDTAVYYCAADRGISWSKLAGGMDYWGKGTQVTVSS
notes: periplasmic extract; also called 21060
% cells bound [1]: 19.5%
dMFI [1]: 397
% cells bound [2]: 10.4%
dMFI [2]: 357

B6: anti-IL-12Rβ2 VHH clone 2CAM88 (VHH)
VHH: QVQLQESGGGLVPPGDSLRLSCAASGRTFSSYTMGWFRQAPGKEREFVARISQDGGSTYYADSMKGRFTVARDNAKNTVYLQMNSLKPEDTAVYYCAADMIKWGLRVGVDSFKYWGQGTQVTVSS
notes: Tested as periplasmic extract; CDR3 group 17
ELISA binding hIL-12RB2/control [3]: 0.998 ratio to control
ELISA binding mIL-12RB2/control [4]: 62.3 ratio to control

B7: anti-IL-12Rβ2 VHH clone 3CRHM20 (VHH, not shown: small tags and cut ends)
VHH: QVQLQESGGGLVQAGGSLRLSCAASGRTFSKSTMGWFRQTPGKEREFVAAITWTDTEVYANSVKDRFTISRDNAKNTFYLQMHSLKLEDTAVYYCAGDRYGSSRDSVFSSPTNYPYWGQGTQVTVSS
notes: periplasmic extract; also called 21055
% cells bound [1]: 28.7%
dMFI [1]: 556
% cells bound [2]: 0.18%
dMFI [2]: 86

B8: anti-IL-12Rβ2 VHH clone 3CRHM99 (VHH, not shown: small tags and cut ends)
VHH: QVQLQESGGGLVQPGGSLRLSCAASGISSSRLHVGWFRQSPGKEREFVAAISLSGGTQAYTDSVKGRFTISGDNVKNTAYLQMNSLRPEDTAVYYCAARERFIWTWSDLTYDYWGQGTQVTVSS
notes: periplasmic extract; also called 21062
% cells bound [1]: 24.4%
dMFI [1]: 558
% cells bound [2]: 10.7%
dMFI [2]: 351

B9: anti-IL-12Rβ2 VHH clone 2CRM88 (VHH)
VHH: QVQLQESGGGLVQAGGSLRLSCQASGRTFSNYRMGWFRQAPGKEREFVAGINWDGGHTYYTDSVKGRFTISRDNAKNTVYLQMNSLKPEDTAVYQCAVRVREYGSSRYEDQFDYWGQGTQVTVSS
notes: Tested as periplasmic extract; CDR3 group 18; also called 20453
ELISA binding hIL-12RB2/control [3]: 0.873 ratio to control
ELISA binding mIL-12RB2/control [4]: 3.73 ratio to control

B10: anti-IL-12Rβ2 VHH clone 2CRM16 (VHH)
VHH: B9 VHH with Q23A
notes: Tested as periplasmic extract; CDR3 group 18
ELISA binding hIL-12RB2/control [3]: 0.947 ratio to control
ELISA binding mIL-12RB2/control [4]: 4.12 ratio to control

B11: anti-IL-12Rβ2 VHH clone 3CRM66 (VHH)
VHH: QVQLQESGGGLVQPGGSLRLSCAASGSTFSIHAMGWYRQAPGKKRELVARITRGGSTNYADSVKGRFTISVDNAKNTVYLQMNSLKPEDTAVYDCNAETGWGEWDDYWGQGTQVTVSS
notes: Tested as periplasmic extract; CDR3 group 42; also called 20461
ELISA binding hIL-12RB2/control [3]: 1.38 ratio to control

B12: anti-IL-12Rβ2 VHH clone 3CRHM35 (VHH, not shown: small tags and cut ends)
VHH: QVQLQESGGGLVQAGGSLRLSCAASGRTFSNYAMAWFRQAPGTEREFVAGLSGSGGDTAFYDNSVMGRFTISRDSAKNTMWLQINNLKPEDTAVYYCAAATHVVVNYGLVRRRGTYDYWGQGTQVTVSS
notes: periplasmic extract; also called 21057
% cells bound [1]: 37.3%
dMFI [1]: 826
% cells bound [2]: 16%
dMFI [2]: 425

B13: anti-IL-12Rβ2 VHH clone 3CRHM200 (VHH, not shown: small tags and cut ends)
VHH: B12 VHH with A14P, N106S
notes: periplasmic extract; also called 21064
% cells bound [1]: 35.3%
dMFI [1]: 694
% cells bound [2]: 17.2%
dMFI [2]: 470

B14: anti-IL-12Rβ2 VHH clone 3CRHM85 (VHH, not shown: small tags and cut ends)
VHH: QVQLQESGGGLVQPGGSLRLSCAASRRTFSKHAMAWFRQAPGKEREFVAVVRWSGIITYYADSVKGRFTISRDDAKNTVYLQMDSLKPEDTAVYYCAAGDYRGNGYYVPGMYDYWGQGTQVTVSS
notes: periplasmic extract; also called 21061
% cells bound [1]: 31.2%
dMFI [1]: 676
% cells bound [2]: 0.74%
dMFI [2]: 157
